# Test results from patent US9993440.
# Columns and labels:
# [1] = system: T1, MMP-cleavable crosslinker KLGPAK (Lys-Leu-Gly-Pro-Ala-Lys)
# T1 sequence: KLGPAK
# [2] = system: T2, plasmin-cleavable crosslinker KNRVK (bisacryloylated Lys-Asn-Arg-Val-Lys)
# T2 sequence: KNRVK
# Chain of plasmin (P00747 20-580): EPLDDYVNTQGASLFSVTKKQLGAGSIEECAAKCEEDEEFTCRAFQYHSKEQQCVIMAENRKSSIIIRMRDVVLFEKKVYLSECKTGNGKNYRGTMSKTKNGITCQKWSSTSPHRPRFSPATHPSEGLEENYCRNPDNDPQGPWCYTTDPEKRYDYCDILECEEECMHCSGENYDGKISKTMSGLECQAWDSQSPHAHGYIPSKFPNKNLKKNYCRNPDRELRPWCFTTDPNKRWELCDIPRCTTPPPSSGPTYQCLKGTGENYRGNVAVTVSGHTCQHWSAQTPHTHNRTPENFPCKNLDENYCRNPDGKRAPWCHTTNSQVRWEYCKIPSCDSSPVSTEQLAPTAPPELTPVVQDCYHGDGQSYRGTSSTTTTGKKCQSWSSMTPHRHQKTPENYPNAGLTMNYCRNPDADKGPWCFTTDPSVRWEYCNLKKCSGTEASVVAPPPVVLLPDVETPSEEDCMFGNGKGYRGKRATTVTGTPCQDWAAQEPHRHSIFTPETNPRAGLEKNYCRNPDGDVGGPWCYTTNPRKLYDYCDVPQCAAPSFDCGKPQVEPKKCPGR
# Chain of plasmin (P00747 581-810): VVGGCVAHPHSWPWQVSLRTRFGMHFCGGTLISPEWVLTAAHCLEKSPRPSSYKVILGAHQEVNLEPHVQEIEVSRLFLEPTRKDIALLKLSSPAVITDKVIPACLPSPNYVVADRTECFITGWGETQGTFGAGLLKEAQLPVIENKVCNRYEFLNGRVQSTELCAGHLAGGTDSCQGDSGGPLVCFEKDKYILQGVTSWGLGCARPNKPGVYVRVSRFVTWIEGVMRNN
Substance,degradation of the polymer shells of nBSALGPA (DLS) [1],"release of BSA from nBSANRV (SDS-PAGE, 30 min) [2]",release of VEGF from de-nVEGFplasmin (100%-peptide crosslinker) (ELISA) [2],"release of BSA from nBSALGPA (SDS-PAGE, 30 min) [1]","VEGF released from nVEGF formed with 100% degradable crosslinker (ELISA, with plasmin) [2]",release percentage of VEGF from de-nVEGFplasmin (100%-peptide crosslinker) (ELISA) [2]
collagenase (a bacterial equivalent of MMP),Exposing nBSALGPA to collagenase results in specific degradation of the polymer shells,nBSANRV without exposure to plasmin (line 2) or after exposure to collagenase (line 4) does not show any well-defined band,–,–,–,–
trypsin,–,–,only extended periods of incubation with trypsin and collagenase IV had releases of VEGF,–,–,–
plasmin,–,does exhibit a well-defined band (line 3) similar to that of native BSA upon exposure to plasmin,–,plasmin is incapable of triggering release of BSA from MMP-specific nBSALGPA,released 95% of the VEGF used to form the nanocapsules,plasmin-incubated nVEGF showed about 60% release percentage
